Data reported in patent publication US20240293544A1 (KIROMIC BIOPHARMA, published 2024).

Assays:
[1] = target: T1, Mesothelin Isoform 2 (IsoMSLN), antigen of the ELISA (human, UniProt Q13421 37-598); experiment: ELISA
T1 construct: also called MSLN Isoform 2; mesothelin isoform-2 polypeptide

[2] = target: T2, Mesothelin (MSLN) Isoform 1, antigen of the ELISA (human, UniProt Q13421 296-598, limits assumed); experiment: ELISA
T2 construct: also called Mesothelin canonical polypeptide
T2 sequence (Q13421 other isoform, or with tags, fused parts or gaps limits assumed): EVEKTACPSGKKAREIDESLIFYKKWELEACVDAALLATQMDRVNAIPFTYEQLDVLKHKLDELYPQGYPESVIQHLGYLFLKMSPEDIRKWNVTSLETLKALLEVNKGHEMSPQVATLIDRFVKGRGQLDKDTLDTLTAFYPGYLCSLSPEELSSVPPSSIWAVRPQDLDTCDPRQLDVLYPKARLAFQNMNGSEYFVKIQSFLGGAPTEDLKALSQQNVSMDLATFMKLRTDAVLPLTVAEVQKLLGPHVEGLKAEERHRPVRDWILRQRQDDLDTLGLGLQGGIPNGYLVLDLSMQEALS

T1 sequence (Q13421 37-606 limits assumed, form in doubt): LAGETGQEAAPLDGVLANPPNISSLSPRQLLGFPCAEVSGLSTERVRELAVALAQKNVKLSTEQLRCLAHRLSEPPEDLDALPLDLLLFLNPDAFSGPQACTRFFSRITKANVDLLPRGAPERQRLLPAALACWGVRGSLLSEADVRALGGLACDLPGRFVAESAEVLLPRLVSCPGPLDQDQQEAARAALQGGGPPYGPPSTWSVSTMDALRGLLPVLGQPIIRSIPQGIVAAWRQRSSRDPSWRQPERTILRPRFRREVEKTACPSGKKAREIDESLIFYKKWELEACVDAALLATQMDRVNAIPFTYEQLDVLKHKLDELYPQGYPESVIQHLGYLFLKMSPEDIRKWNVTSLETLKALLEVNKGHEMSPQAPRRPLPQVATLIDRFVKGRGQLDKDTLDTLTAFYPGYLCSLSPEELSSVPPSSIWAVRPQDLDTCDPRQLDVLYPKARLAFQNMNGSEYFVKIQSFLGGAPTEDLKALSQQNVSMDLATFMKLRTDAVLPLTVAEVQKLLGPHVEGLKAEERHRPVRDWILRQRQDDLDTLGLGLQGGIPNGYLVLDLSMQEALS

EC50 [1]: 0.073 µg/mL | binding result [2]: no binding
B1: 1B6 monoclonal antibody (Binding Molecule A) (antibody, V domains shown)
VH: EVKLVESGGGLVKPGGSLKLSCEASGFTFSRYAMSWVRHTPEKRLAWVASITFGGDPYYPDGLKGRFTISRDNTRNILYLQMNSLRSEDTAMYYCVRHESWFAYWGQGTLVTVSA
VL: DVLMTQTPLSLPVSLGEQVSISCRSSQTIVHTDGNIYLEWYLQNPGQSPRLLIYKISNRFSGVPDRFSGSGSGTDFTLKISRVEAEDLGIYYCFQASHVPYTFGGGTKLEIK
notes: also called 1B6 antibody; 1B6 mAb
